Measurements from article PMC4500170.

Test system: Cc1cc(O)cc2c(C(=O)O)c(O)ccc12
Assay: purified protein
Details: 2.5 mM SAM, 100 mM phosphate pH 6.5, 25 °C, 10 μM enzyme

Substance | Km [µM] | kcat [s⁻¹]
NcsB1 (Streptomyces carzinostaticus; R11A) | 419 ± 61 | 0.0207 ± 0.001
NcsB1 (Streptomyces carzinostaticus; Y293I) | 649 ± 9 | 0.0127 ± 0.000667
NcsB1 (Streptomyces carzinostaticus; R11W) | 400 ± 68 | 0.01 ± 0.0005
NcsB1 (Streptomyces carzinostaticus; R11K) | 319 ± 40 | 0.0197 ± 0.000833
